# Reference: patent US20230220115A1 (BIOMOLECULAR, published 2023)
# T1: CD20 Lipoparticles (UniProt P11836 1-297)
# T1 sequence (looked up): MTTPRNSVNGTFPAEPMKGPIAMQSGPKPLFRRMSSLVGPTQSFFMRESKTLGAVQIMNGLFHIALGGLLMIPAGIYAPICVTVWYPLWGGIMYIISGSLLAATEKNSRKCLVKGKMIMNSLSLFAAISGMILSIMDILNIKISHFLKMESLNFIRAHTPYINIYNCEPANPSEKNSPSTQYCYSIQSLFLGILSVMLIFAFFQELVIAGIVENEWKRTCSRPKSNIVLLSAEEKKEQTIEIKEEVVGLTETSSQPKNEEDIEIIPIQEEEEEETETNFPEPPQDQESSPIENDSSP
# T2: recombinant human Fc gamma receptor CD32b/c (human, UniProt P31994 46-217)
# T2 sequence (looked up): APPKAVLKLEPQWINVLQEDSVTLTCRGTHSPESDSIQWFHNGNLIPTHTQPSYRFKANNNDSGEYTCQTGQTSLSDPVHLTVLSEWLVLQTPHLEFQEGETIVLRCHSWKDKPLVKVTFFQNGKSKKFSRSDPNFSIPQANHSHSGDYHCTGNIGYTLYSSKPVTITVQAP
# T3: recombinant human Fc gamma receptor CD32a 131R (human, UniProt P12318 36-218)
# T3 sequence (looked up): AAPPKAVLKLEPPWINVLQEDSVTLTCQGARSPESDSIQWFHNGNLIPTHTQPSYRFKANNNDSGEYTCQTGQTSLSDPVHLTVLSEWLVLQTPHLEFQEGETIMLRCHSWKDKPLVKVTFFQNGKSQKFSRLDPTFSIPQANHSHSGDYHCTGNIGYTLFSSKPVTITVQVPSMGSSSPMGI
# T4: recombinant human Fc gamma receptor CD32a 131H (human, UniProt P12318 36-218)
# T4 sequence (looked up): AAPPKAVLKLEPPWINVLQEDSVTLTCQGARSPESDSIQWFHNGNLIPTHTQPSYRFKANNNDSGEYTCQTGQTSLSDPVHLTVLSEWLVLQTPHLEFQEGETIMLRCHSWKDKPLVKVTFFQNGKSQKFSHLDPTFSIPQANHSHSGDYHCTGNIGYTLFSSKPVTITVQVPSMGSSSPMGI
# T5: CD19 (UniProt P15391 20-291)
# T5 sequence (looked up): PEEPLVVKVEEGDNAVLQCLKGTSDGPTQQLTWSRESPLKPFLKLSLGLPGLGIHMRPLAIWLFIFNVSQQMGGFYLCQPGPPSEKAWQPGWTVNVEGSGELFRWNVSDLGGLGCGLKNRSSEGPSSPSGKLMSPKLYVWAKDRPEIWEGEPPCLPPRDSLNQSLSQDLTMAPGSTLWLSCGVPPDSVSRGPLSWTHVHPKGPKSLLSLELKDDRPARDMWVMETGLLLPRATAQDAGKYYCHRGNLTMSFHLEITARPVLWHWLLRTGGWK
# B1: Rc66SIDE (One-arm antibody) (antibody, human IgG1, kappa)
# light: QIVLSQSPAILSASPGEKVTMTCRASSSVSYIHWFQQKPGSSPKPWIYATSNLASGVPVRFSGSGSGTSYSLTISRVEAEDAATYYCQQWTSNPPTFGGGTKLEIKRTVAAPSVFIFPPSDEQLKSGTASVVCLLNNFYPREAKVQWKVDNALQSGNSQESVTEQDSKDSTYSLSSTLTLSKADYEKHKVYACEVTHQGLSSPVTKSFNRGEC
# heavy: QVQLQQPGAELVKPGASVKMSCKASGYTFTSYNMHWVKQTPGRGLEWIGAIYPGNGDTSYNQKFKGKATLTADKSSSTAYMQLSSLTSEDSAVYYCARSTYYGGDWYFNVWGAGTTVTVSAASTKGPSVFPLAPSSKSTSGGTAALGCLVKDYFPEPVTVSWNSGALTSGVHTFPAVLQSSGLYSLSSVVTVPSSSLGTQTYICNVNHKPSNTKVDKKAEPKSCDKTHTCPPCPAPELLGGPDVFLFPPKPKDTLMISRTPEVTCVVVDVSHEDPEVKFNWYVDGVEVHNAKTKPREEQYNSTYRVVSVLTVLHQDWLNGKEYKCKVSNKALPAPEEKTISKAKGQPREPQVYVLPPSRDELTKNQVSLLCLVKGFYPSDIAVEWESNGQPENNYLTWPPVLDSDGSFFLYSKLTVDKSRWQQGNVFSCSVMHEALHNHYTQKSLSLSPGK
# chain: CPPCPAPELLGGPDVFLFPPKPKDTLMISRTPEVTCVVVDVSHEDPEVKFNWYVDGVEVHNAKTKPREEQYNSTYRVVSVLTVLHQDWLNGKEYKCKVSNKALPAPEEKTISKAKGQPREPQVYVYPPSRDELTKNQVSLTCLVKGFYPSDIAVEWESNGQPENNYKTTPPVLDSDGSFALVSKLTVDKSRWQQGNVFSCSVMHEALHNHYTQKSLSLSPGK
# B2: Rc66SIDE-P16-Rc66SIDE (antibody, human IgG1, kappa)
# light: QIVLSQSPAILSASPGEKVTMTCRASSSVSYIHWFQQKPGSSPKPWIYATSNLASGVPVRFSGSGSGTSYSLTISRVEAEDAATYYCQQWTSNPPTFGGGTKLEIKRTVAAPSVFIFPPSDEQLKSGTASVVCLLNNFYPREAKVQWKVDNALQSGNSQESVTEQDSKDSTYSLSSTLTLSKADYEKHKVYACEVTHQGLSSPVTKSFNRGEC
# heavy: QVQLQQPGAELVKPGASVKMSCKASGYTFTSYNMHWVKQTPGRGLEWIGAIYPGNGDTSYNQKFKGKATLTADKSSSTAYMQLSSLTSEDSAVYYCARSTYYGGDWYFNVWGAGTTVTVSAASTKGPSVFPLAPSSKSTSGGTAALGCLVKDYFPEPVTVSWNSGALTSGVHTFPAVLQSSGLYSLSSVVTVPSSSLGTQTYICNVNHKPSNTKVDKKAEPKSCDKTHTCPPCPAPELLGGPDVFLFPPKPKDTLMISRTPEVTCVVVDVSHEDPEVKFNWYVDGVEVHNAKTKPREEQYNSTYRVVSVLTVLHQDWLNGKEYKCKVSNKALPAPEEKTISKAKGQPREPQVYVLPPSRDELTKNQVSLLCLVKGFYPSDIAVEWESNGQPENNYLTWPPVLDSDGSFFLYSKLTVDKSRWQQGNVFSCSVMHEALHNHYTQKSLSLSPGK
# chain: CPPCPAPELLGGPDVFLFPPKPKDTLMISRTPEVTCVVVDVSHEDPEVKFNWYVDGVEVHNAKTKPREEQYNSTYRVVSVLTVLHQDWLNGKEYKCKVSNKALPAPEEKTISKAKGQPREPQVYVYPPSRDELTKNQVSLTCLVKGFYPSDIAVEWESNGQPENNYKTTPPVLDSDGSFALVSKLTVDKSRWQQGNVFSCSVMHEALHNHYTQKSLSLSPGK
# B3: Rc66SIDE-P4-Rc66SIDE (antibody, human IgG1, kappa)
# light: QIVLSQSPAILSASPGEKVTMTCRASSSVSYIHWFQQKPGSSPKPWIYATSNLASGVPVRFSGSGSGTSYSLTISRVEAEDAATYYCQQWTSNPPTFGGGTKLEIKRTVAAPSVFIFPPSDEQLKSGTASVVCLLNNFYPREAKVQWKVDNALQSGNSQESVTEQDSKDSTYSLSSTLTLSKADYEKHKVYACEVTHQGLSSPVTKSFNRGEC
# heavy: QVQLQQPGAELVKPGASVKMSCKASGYTFTSYNMHWVKQTPGRGLEWIGAIYPGNGDTSYNQKFKGKATLTADKSSSTAYMQLSSLTSEDSAVYYCARSTYYGGDWYFNVWGAGTTVTVSAASTKGPSVFPLAPSSKSTSGGTAALGCLVKDYFPEPVTVSWNSGALTSGVHTFPAVLQSSGLYSLSSVVTVPSSSLGTQTYICNVNHKPSNTKVDKKAEPKSCDKTHTCPPCPAPELLGGPDVFLFPPKPKDTLMISRTPEVTCVVVDVSHEDPEVKFNWYVDGVEVHNAKTKPREEQYNSTYRVVSVLTVLHQDWLNGKEYKCKVSNKALPAPEEKTISKAKGQPREPQVYVLPPSRDELTKNQVSLLCLVKGFYPSDIAVEWESNGQPENNYLTWPPVLDSDGSFFLYSKLTVDKSRWQQGNVFSCSVMHEALHNHYTQKSLSLSPGK
# chain: CPPCPAPELLGGPDVFLFPPKPKDTLMISRTPEVTCVVVDVSHEDPEVKFNWYVDGVEVHNAKTKPREEQYNSTYRVVSVLTVLHQDWLNGKEYKCKVSNKALPAPEEKTISKAKGQPREPQVYVYPPSRDELTKNQVSLTCLVKGFYPSDIAVEWESNGQPENNYKTTPPVLDSDGSFALVSKLTVDKSRWQQGNVFSCSVMHEALHNHYTQKSLSLSPGK
# B4: Rc66SIDE-P28-Rc66SIDE (antibody, human IgG1, kappa)
# light: QIVLSQSPAILSASPGEKVTMTCRASSSVSYIHWFQQKPGSSPKPWIYATSNLASGVPVRFSGSGSGTSYSLTISRVEAEDAATYYCQQWTSNPPTFGGGTKLEIKRTVAAPSVFIFPPSDEQLKSGTASVVCLLNNFYPREAKVQWKVDNALQSGNSQESVTEQDSKDSTYSLSSTLTLSKADYEKHKVYACEVTHQGLSSPVTKSFNRGEC
# heavy: QVQLQQPGAELVKPGASVKMSCKASGYTFTSYNMHWVKQTPGRGLEWIGAIYPGNGDTSYNQKFKGKATLTADKSSSTAYMQLSSLTSEDSAVYYCARSTYYGGDWYFNVWGAGTTVTVSAASTKGPSVFPLAPSSKSTSGGTAALGCLVKDYFPEPVTVSWNSGALTSGVHTFPAVLQSSGLYSLSSVVTVPSSSLGTQTYICNVNHKPSNTKVDKKAEPKSCDKTHTCPPCPAPELLGGPDVFLFPPKPKDTLMISRTPEVTCVVVDVSHEDPEVKFNWYVDGVEVHNAKTKPREEQYNSTYRVVSVLTVLHQDWLNGKEYKCKVSNKALPAPEEKTISKAKGQPREPQVYVLPPSRDELTKNQVSLLCLVKGFYPSDIAVEWESNGQPENNYLTWPPVLDSDGSFFLYSKLTVDKSRWQQGNVFSCSVMHEALHNHYTQKSLSLSPGK
# chain: CPPCPAPELLGGPDVFLFPPKPKDTLMISRTPEVTCVVVDVSHEDPEVKFNWYVDGVEVHNAKTKPREEQYNSTYRVVSVLTVLHQDWLNGKEYKCKVSNKALPAPEEKTISKAKGQPREPQVYVYPPSRDELTKNQVSLTCLVKGFYPSDIAVEWESNGQPENNYKTTPPVLDSDGSFALVSKLTVDKSRWQQGNVFSCSVMHEALHNHYTQKSLSLSPGK
# B5: B19c66AAC9 (one-arm antibody) (antibody, human IgG1, kappa)
# light: not shown
# heavy: QVQLQQSGAELVRPGSSVKISCKASGYAFSSYWMNWVKQRPGQGLEWIGQIWPGDGDTNYNGKFKGKATLTADESSSTAYMQLSSLASEDSAVYFCARRETTTVGRYYYAMDYWGQGTTVTVSSASTKGPSVFPLAPSSKSTSGGTAALGCLVKDYFPEPVTVSWNSGALTSGVHTFPAVLQSSGLYSLSSVVTVPSSSLGTQTYICNVNHKPSNTKVDKKVEPKSCDKTHTCPPCPAPKRRGGPSVFLFPPKPKDTLMISRTPEVTCVVVDVSHEDPEVKFNWYVDGVEVHNAKTKPREEQYNSTYRVVSVLTVLHQDWLNGKEYKCKVSNKALPAPIEKTISKAKGQPREPQVYVLPPSRDELTKNQVSLLCLVKGFYPSDIAVEWESNGQPENNYLTWPPVLDSDGSFFLYSKLTVDKSRWQQGNVFSCSVMHEALHNHYTQKSLSLSPGK
# chain: CPPCPAPEDEGGPSVFLFPPKPKDTLMISRTPEVTCVVVDVSHEDPEVKFNWYVDGVEVHNAKTKPREEQYNSTYRVVSVLTVLHQDWLNGKEYKCKVSNKALPAPIEKTISKAKGQPREPQVYVYPPSRDELTKNQVSLTCLVKGFYPSDIAVEWESNGQPENNYKTTPPVLDSDGSFALVSKLTVDKSRWQQGNVFSCSVMHEALHNHYTQKSLSLSPGK
# What was measured:
# [1] = target: T1, CD20 Lipoparticles
# [2] = target: T2, recombinant human Fc gamma receptor …
# [3] = target: T3, recombinant human Fc gamma receptor …
# [4] = target: recombinant human Fc gamma receptor CD16a 158F (FcRγIIIa) (human, UniProt P08637 17-208)
# [5] = target: recombinant human Fc gamma receptor CD16b (FcRγIIIb) (human, UniProt O75015 17-200)
# [6] = target: T4, recombinant human Fc gamma receptor …
# [7] = target: recombinant human Fc gamma receptor CD16a 158V (FcRγIIIa) (human, UniProt P08637 17-208)
# [8] = target: recombinant human Fc gamma receptor CD64 (FcRγI) (human, UniProt P12314 16-288)
# [9] = target: T5, CD19
# recombinant human Fc gamma receptor CD64 (FcRγI), sequence (P12314 16-288 limits assumed): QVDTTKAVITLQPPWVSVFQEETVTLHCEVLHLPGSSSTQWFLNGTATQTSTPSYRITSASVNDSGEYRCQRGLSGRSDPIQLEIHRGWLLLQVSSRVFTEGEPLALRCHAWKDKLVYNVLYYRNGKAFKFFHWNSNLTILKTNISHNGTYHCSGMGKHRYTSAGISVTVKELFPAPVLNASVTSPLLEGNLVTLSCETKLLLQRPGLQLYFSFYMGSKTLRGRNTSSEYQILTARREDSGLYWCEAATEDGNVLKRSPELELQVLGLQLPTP
# recombinant human Fc gamma receptor CD16b (FcRγIIIb), sequence (O75015 17-200 limits assumed): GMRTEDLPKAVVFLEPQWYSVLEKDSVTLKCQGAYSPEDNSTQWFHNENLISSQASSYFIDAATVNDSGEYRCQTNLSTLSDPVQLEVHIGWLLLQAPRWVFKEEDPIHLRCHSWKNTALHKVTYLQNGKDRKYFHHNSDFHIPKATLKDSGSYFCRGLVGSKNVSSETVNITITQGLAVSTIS
# recombinant human Fc gamma receptor CD16a 158F (FcRγIIIa), sequence (P08637 17-208 limits assumed): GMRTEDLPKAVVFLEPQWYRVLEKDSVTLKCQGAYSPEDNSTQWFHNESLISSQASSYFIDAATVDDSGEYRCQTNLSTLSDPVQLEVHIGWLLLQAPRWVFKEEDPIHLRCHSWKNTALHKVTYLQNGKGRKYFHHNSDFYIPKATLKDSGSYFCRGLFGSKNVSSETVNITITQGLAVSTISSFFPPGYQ
# recombinant human Fc gamma receptor CD16a 158V (FcRγIIIa), sequence (P08637 17-208 F176V limits assumed): as the sequence (P08637 17-208 limits assumed) above, with F160V counted along it
Binder,Kd [1] [nM],Kd [2] [nM],Kd [3] [nM],Kd [4] [nM],Kd [5] [nM],Kd [6] [nM],Kd [7] [nM],Kd [8] [nM],Kd [9] [nM]
B1,21.4,253,202,76.8,163,255,46.2,–,–
B2,< 0.001,0.556,1.83,2.71,< 0.001,0.808,0.257,< 0.001,–
B3,< 0.001,3.17,4.93,3.87,1.05,2.54,1.14,< 0.001,–
B4,< 0.001,7.28,8.11,6.62,5.64,5.42,4.98,1.14,–
B5,–,–,–,–,–,–,–,–,21
